{
  "source": "patent US20160356794A1",
  "about": "(Merck Sharp & Dohme, published 2016)",
  "binders": {"B1": {"name": "monoclonal antibody 19G10 (antibody, mouse IgG2b, V domains shown)", "VH": "QVTLKESGPGILQPSQTLSLTCSFSGFSLSTSGMGVGWIRQPSGKGLEWLAHIWWDDDKYYNAVLKSRLTISKDTSKNQVFLKIASVDTADTATYYCARIGIDGPYAMDYWGQGTSVTVSS", "VL": "DIVMSQSPSSLAVSIGEKVTMSCKSSQSLLYSNNQKNYLAWYQRKPGQSPKLLIYWASTRESGVPDRFTGSGSGTDFTLTITSVKAEDLAVYYCQQYYSYPLWTFGGGTKLEIK", "notes": "also called mAb 19G10; 19G10 mAb"}},
  "key": {"[1]": {"biological_target": "T1, KSGDRSGYSSPGSPG (human)", "T1 construct": "Synthetic peptide covalently immobilized on glass through a hydrophilic linker (RepliTope microarray)", "T1 peptide": "KSGDRSGYSSPGSPG", "experiment": "RepliTope peptide microarray, immobilized 15-mer, fluorescent secondary antibody", "from_the_text": "(§1) Epitope mapping of clones 10H8 and 19G10 was completed using JPT Peptide Technologies' RepliTope™ peptide microarrays. This technology consists in using purified synthetic peptides chemoselectively and covalently immobilized to the glass surface. An optimized hydrophilic linker moiety is inserted between the glass surface and the antigen derived peptide sequence to avoid false negatives caused by sterical hindrance. The peptides used spanned Tau mid region protein sequence of 166 amino acids between amino acid 104 and amino acid 269 (Tau 166). Peptides of 15 amino acids in length that extended downstream either 1 or 2 amino acids at a time were used in this experiment.\n(§2) The assay was performed using an automated TECAN HS4X00 microarray processing station. Microarrays were washed, incubated with blocking buffer for 60 min at 30° C., and subsequently with clones […] and 19G10 diluted in blocking buffer for 120 min at 30° C. Microarrays were washed and incubated with secondary antibody diluted in blocking buffer for 45 min at 30° C. and then dried. The quantification was performed using high resolution fluorescence scanner. The resulting images were analyzed and quantified using spot-recognition software GenePix (Molecular Devices). For each spot, the mean signal intensity was extracted and expressed as arbitraty florescence units."}, "[2]": {"biological_target": "T2, GDRSGYSSPGSPGTP (human)", "T2 construct": "Synthetic peptide covalently immobilized on glass through a hydrophilic linker (RepliTope microarray)", "T2 peptide": "GDRSGYSSPGSPGTP", "experiment": "RepliTope peptide microarray, immobilized 15-mer, fluorescent secondary antibody", "from_the_text": "as §1, §2"}, "[3]": {"biological_target": "T3, APKTPPSSGEPPKSG (human)", "T3 construct": "Synthetic peptide covalently immobilized on glass through a hydrophilic linker (RepliTope microarray)", "T3 peptide": "APKTPPSSGEPPKSG", "experiment": "RepliTope peptide microarray, immobilized 15-mer, fluorescent secondary antibody", "from_the_text": "as §1, §2"}, "[4]": {"biological_target": "T4, PPKSGDRSGYSSPGS (human)", "T4 construct": "Synthetic peptide covalently immobilized on glass through a hydrophilic linker (RepliTope microarray)", "T4 peptide": "PPKSGDRSGYSSPGS", "experiment": "RepliTope peptide microarray, immobilized 15-mer, fluorescent secondary antibody", "from_the_text": "as §1, §2"}, "[5]": {"biological_target": "T5, SSGEPPKSGDRSGYS (human, also: covalently immobilized on glass through a hydrophilic linker)", "T5 construct": "Synthetic peptide covalently immobilized on glass through a hydrophilic linker (RepliTope microarray)", "T5 peptide": "SSGEPPKSGDRSGYS", "experiment": "RepliTope peptide microarray, immobilized 15-mer, fluorescent secondary antibody", "from_the_text": "as §1, §2"}, "[6]": {"biological_target": "T6, PPAPKTPPSSGEPPK (human)", "T6 construct": "Synthetic peptide covalently immobilized on glass through a hydrophilic linker (RepliTope microarray)", "T6 peptide": "PPAPKTPPSSGEPPK", "experiment": "RepliTope peptide microarray, immobilized 15-mer, fluorescent secondary antibody", "from_the_text": "as §1, §2"}, "[7]": {"biological_target": "T7, PPKSGDRSGYSSPGS (human)", "T7 construct": "Synthetic peptide covalently immobilized on glass through a hydrophilic linker (RepliTope microarray)", "T7 peptide": "PPKSGDRSGYSSPGS", "experiment": "RepliTope peptide microarray, immobilized 15-mer, fluorescent secondary antibody", "from_the_text": "as §1, §2"}, "[8]": {"biological_target": "T8, GEPPKSGDRSGYSSP (human)", "T8 construct": "Synthetic peptide covalently immobilized on glass through a hydrophilic linker (RepliTope microarray)", "T8 peptide": "GEPPKSGDRSGYSSP", "experiment": "RepliTope peptide microarray, immobilized 15-mer, fluorescent secondary antibody", "from_the_text": "as §1, §2"}, "[9]": {"biological_target": "T9, SGEPPKSGDRSGYSS (human, also: covalently immobilized on glass through a hydrophilic linker)", "T9 construct": "Synthetic peptide covalently immobilized on glass through a hydrophilic linker (RepliTope microarray)", "T9 peptide": "SGEPPKSGDRSGYSS", "experiment": "RepliTope peptide microarray, immobilized 15-mer, fluorescent secondary antibody", "from_the_text": "as §1, §2"}, "[10]": {"biological_target": "T10, EPPKSGDRSGYSSPG (human)", "T10 construct": "Synthetic peptide covalently immobilized on glass through a hydrophilic linker (RepliTope microarray)", "T10 peptide": "EPPKSGDRSGYSSPG", "experiment": "RepliTope peptide microarray, immobilized 15-mer, fluorescent secondary antibody", "from_the_text": "as §1, §2"}, "[11]": {"biological_target": "T11, PPSSGEPPKSGDRSG (human)", "T11 construct": "Synthetic peptide covalently immobilized on glass through a hydrophilic linker (RepliTope microarray)", "T11 peptide": "PPSSGEPPKSGDRSG", "experiment": "RepliTope peptide microarray, immobilized 15-mer, fluorescent secondary antibody", "from_the_text": "as §1, §2"}, "[12]": {"biological_target": "T12, KSGDRSGYSSPGSPG (human)", "T12 construct": "Synthetic peptide covalently immobilized on glass through a hydrophilic linker (RepliTope microarray)", "T12 peptide": "KSGDRSGYSSPGSPG", "experiment": "RepliTope peptide microarray, immobilized 15-mer, fluorescent secondary antibody", "from_the_text": "as §1, §2"}, "[13]": {"biological_target": "T13, PKSGDRSGYSSPGSP (human)", "T13 construct": "Synthetic peptide covalently immobilized on glass through a hydrophilic linker (RepliTope microarray)", "T13 peptide": "PKSGDRSGYSSPGSP", "experiment": "RepliTope peptide microarray, immobilized 15-mer, fluorescent secondary antibody", "from_the_text": "as §1, §2"}, "[14]": {"biological_target": "T14, SGDRSGYSSPGSPGT (human, also: covalently immobilized on glass through a hydrophilic linker)", "T14 construct": "Synthetic peptide covalently immobilized on glass through a hydrophilic linker (RepliTope microarray)", "T14 peptide": "SGDRSGYSSPGSPGT", "experiment": "RepliTope peptide microarray, immobilized 15-mer, fluorescent secondary antibody", "from_the_text": "as §1, §2"}, "[15]": {"biological_target": "T15, KTPPSSGEPPKSGDR (human)", "T15 construct": "Synthetic peptide covalently immobilized on glass through a hydrophilic linker (RepliTope microarray)", "T15 peptide": "KTPPSSGEPPKSGDR", "experiment": "RepliTope peptide microarray, immobilized 15-mer, fluorescent secondary antibody", "from_the_text": "as §1, §2"}, "[16]": {"biological_target": "T16, SSGEPPKSGDRSGYS (human, also: covalently immobilized on glass through a hydrophilic linker)", "T16 construct": "Synthetic peptide covalently immobilized on glass through a hydrophilic linker (RepliTope microarray)", "T16 peptide": "SSGEPPKSGDRSGYS", "experiment": "RepliTope peptide microarray, immobilized 15-mer, fluorescent secondary antibody", "from_the_text": "as §1, §2"}, "[17]": {"biological_target": "T17, GEPPKSGDRSGYSSP (human)", "T17 construct": "Synthetic peptide covalently immobilized on glass through a hydrophilic linker (RepliTope microarray)", "T17 peptide": "GEPPKSGDRSGYSSP", "experiment": "RepliTope peptide microarray, immobilized 15-mer, fluorescent secondary antibody", "from_the_text": "as §1, §2"}, "[18]": {"biological_target": "h-Tau 441 (human Tau isoform 2-441, Accession No. NP 005901.2) (human, UniProt P10636 2-758)", "sequence (P10636 other isoform, or with tags, fused parts or gaps limits assumed)": "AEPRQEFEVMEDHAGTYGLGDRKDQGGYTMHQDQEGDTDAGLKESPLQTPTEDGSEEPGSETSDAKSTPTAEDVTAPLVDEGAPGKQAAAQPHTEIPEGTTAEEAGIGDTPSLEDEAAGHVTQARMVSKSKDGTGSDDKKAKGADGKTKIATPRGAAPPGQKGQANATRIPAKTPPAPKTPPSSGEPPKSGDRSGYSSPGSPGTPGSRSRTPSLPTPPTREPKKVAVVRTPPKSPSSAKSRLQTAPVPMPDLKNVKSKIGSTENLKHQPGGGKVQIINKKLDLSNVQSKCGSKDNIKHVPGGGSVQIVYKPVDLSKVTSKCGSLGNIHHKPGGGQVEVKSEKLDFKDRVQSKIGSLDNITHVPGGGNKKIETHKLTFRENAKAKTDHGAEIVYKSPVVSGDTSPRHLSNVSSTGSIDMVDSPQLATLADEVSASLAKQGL", "experiment": "SPR, BIAcore CM3 sensor chip, immobilized h-Tau 441", "method": "The binding affinity (Kd) of the 10H8 and 19G10 mAbs was determined by BIAcore CM3 sensor chip (Biacore, Piscataway, N.J.) using immobilized h-Tau 441 as the capture protein."}},
  "note": "No end group written: not given here.",
  "data": [
    {"binder": "B1", "values": [
      {"measurement": "Fluorescent Intensity", "setting": "[1]", "result": "1810 arbitrary fluorescence units"},
      {"measurement": "Fluorescent Intensity", "setting": "[2]", "result": "588 arbitrary fluorescence units"},
      {"measurement": "Fluorescent Intensity", "setting": "[3]", "result": "761 arbitrary fluorescence units"},
      {"measurement": "Fluorescent Intensity", "setting": "[4]", "result": "53400 arbitrary fluorescence units"},
      {"measurement": "Fluorescent Intensity", "setting": "[5]", "result": "55400 arbitrary fluorescence units"},
      {"measurement": "Fluorescent Intensity", "setting": "[6]", "result": "892 arbitrary fluorescence units"},
      {"measurement": "Fluorescent Intensity", "setting": "[7]", "result": "58700 arbitrary fluorescence units"},
      {"measurement": "Fluorescent Intensity", "setting": "[8]", "result": "58900 arbitrary fluorescence units"},
      {"measurement": "Fluorescent Intensity", "setting": "[9]", "result": "59700 arbitrary fluorescence units"},
      {"measurement": "Fluorescent Intensity", "setting": "[10]", "result": "63100 arbitrary fluorescence units"},
      {"measurement": "Fluorescent Intensity", "setting": "[11]", "result": "62000 arbitrary fluorescence units"},
      {"measurement": "Fluorescent Intensity", "setting": "[12]", "result": "1550 arbitrary fluorescence units"},
      {"measurement": "Fluorescent Intensity", "setting": "[13]", "result": "49600 arbitrary fluorescence units"},
      {"measurement": "Fluorescent Intensity", "setting": "[14]", "result": "619 arbitrary fluorescence units"},
      {"measurement": "Fluorescent Intensity", "setting": "[15]", "result": "55800 arbitrary fluorescence units"},
      {"measurement": "Fluorescent Intensity", "setting": "[16]", "result": "62700 arbitrary fluorescence units"},
      {"measurement": "Fluorescent Intensity", "setting": "[17]", "result": "58000 arbitrary fluorescence units"},
      {"measurement": "Kd", "setting": "[18]", "result": 6.3, "unit": "nM"},
      {"measurement": "koff", "setting": "[18]", "result": 0.000176, "unit": "s⁻¹"},
      {"measurement": "kon", "setting": "[18]", "result": 25900, "unit": "M⁻¹ s⁻¹"}
    ]}
  ]
}
